Measurements as given in paper PMC4499801, “Resolving single membrane fusion events on planar pore-spanning membranes” (Scientific Reports, 2015).
Primed or numbered codes have the meaning given here. Where no end group is shown, it is not given here. PEG12′ = PEG spacer of 12 units between cholesterol and peptide

T1: cholesterol-PEG12-(EIAALEK)4 (cholesterol-PEG12 anchor, as printed: cholesterol-PEG12-(EIAALEK)4)
T1 construct: printed as (EIAALEK)4, written out four times; coiled coil forming lipidated peptide; also called SNARE fusion mimetic; lipopeptide; source: reconstituted into pore-spanning membranes
T1 peptide: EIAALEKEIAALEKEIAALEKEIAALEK


What was measured:
[1] = target: T1, cholesterol-PEG12-(EIAALEK)4; test: single vesicle docking on planar pore-spanning membranes (two color confocal fluorescence microscopy); target reconstituted in pore-spanning membranes (DOPC/POPE/POPS/cholesterol 5:2:1:2, 1,000:1, Oregon Green DHPE), binder in Texas Red DHPE doped LUVs (1,000:1, 325 nm); buffer A (20 mM HEPES, 100 mM KCl, 1 mM DTT, pH 7.4); time series of 300 s; conditions: both partners purified
[2] = target: T2, syntaxin 1A (residues 183-288) (Rattus norvegicus, UniProt P32851 183-288); test: assembly of the complex from purified proteins and purification by ion exchange chromatography (MonoQ); three purified proteins mixed with an excess of SNAP25a (1:1:1.5) in 1% CHAPS, over night at 7 °C, complex purified by MonoQ; conditions: both partners purified
T2 construct: syntaxin 1A, Rattus norvegicus, residues 183-288; source: E. coli BL21(DE3), pET28a, purified (Ni-NTA, MonoQ, 1% CHAPS); also reconstituted alone into pore-spanning membranes
T2 sequence (P32851 183-288): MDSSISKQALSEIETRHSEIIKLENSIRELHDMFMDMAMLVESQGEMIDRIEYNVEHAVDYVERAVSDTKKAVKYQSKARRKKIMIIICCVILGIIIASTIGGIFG

Row | Binder | binding result [1] | binding result [2]
1 | {cholesterol-PEG12′}-KIAALKEKIAALKEKIAALKEKIAALKE (printed as (KIAALKE)4, written out four times; coiled coil forming lipidated peptide; also called SNARE fusion mimetic; lipopeptide; source: reconstituted into large unilamellar vesicles) [cholesterol-PEG12-(KIAALKE)4] | binds | –
2 | NVDKVLERDQKLSELDDRADALQAGASQFETSAAKLKRKYWWKNLKMM (domain or fragment, Rattus norvegicus, UniProt P63045 49-96, looked up, synaptobrevin 2, Rattus norvegicus, residues 49-96; also called C-terminal soluble fragment of synaptobrevin 2 (residues 49-96); soluble fragment of synaptobrevin 2; source: E. coli BL21(DE3), pET28a, purified (Ni-NTA, MonoS)) [synaptobrevin 2 (residues 49-96, soluble C-terminal fragment)] | – | binds
